For experiment [1], the target named is T1, recombinant human lymphotoxin alpha (rhuLTα) (human, UniProt P01374 35-205).
T1 sequence (looked up): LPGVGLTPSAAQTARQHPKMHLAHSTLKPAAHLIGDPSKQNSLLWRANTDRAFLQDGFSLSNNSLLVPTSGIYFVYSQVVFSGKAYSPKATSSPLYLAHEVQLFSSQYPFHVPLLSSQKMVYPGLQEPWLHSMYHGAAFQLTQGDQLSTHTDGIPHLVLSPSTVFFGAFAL
In words: cell-based or functional assay.

Experiment [2] concerns the target T1, recombinant human lymphotoxin alpha …. Put plainly: SPR; Mab captured on immobilized anti-murine Fc antibody, rhuLTα in solution. The method, then:
The affinity of anti-human LTα Mabs for rhuLTα was determined using surface plasmon resonance technology. The murine Mabs were first captured on chips that contained immobilized polyclonal anti-murine Fc antibody. Buffer containing rhuLTα was then passed over the captured Mab molecules and the resulting change in the mass bound over time was recorded.
(SPR reads the build-up and loss of mass on a sensor chip optically.)

Experiment [3] has as its target T2, human TNFα (human, UniProt P01375 77-233).
T2 construct: Coated as recombinant protein in the EIA
In words: EIA, recombinant protein coated at 1 µg/mL. The protocol: (§1) Enzyme immunoassays (EIAs) were used to test hybridoma cell supernatants for the presence of murine anti-LTα Mabs. Briefly, plates were coated with rhuLTα at 10 μg/mL in PBS overnight. After washing in 0.15 M saline containing 0.02% (v/v) Tween 20, the wells were blocked with 1% (w/v) BSA in PBS for 1 hour at RT. Undiluted hybridoma supernatants were incubated on the plates for one hour at 37° C. The plates were washed and probed with HRP-conjugated goat anti-mouse IgG Fc specific antibody for one hour at 37° C. The plates were again washed and citrate-phosphate substrate solution (0.1 M citric acid and 0.2 M sodium phosphate, 0.01% H₂O₂ and 1 mg/mL OPD) was added for 15 minutes at RT. Stop solution (4N sulfuric acid) was then added and the OD's were read at 490 nm using an automated plate spectrophotometer. The anti-human LTα Mabs were assessed for their ability to cross-react with murine LTα or human TNFα. The recombinant proteins were coated on EIA plates at 1 μg/mL in the same manner described above. Purified Mabs were incubated on the plates in serial dilutions starting at […] for 1 hour at 37° C. The plates were washed, probed and processed as above. […] Eight different hybridoma clones that secrete a murine IgG1 κ Mab specifically binds to rhuLTα.

For experiment [4], the target named is T3, murine LTα (murine, UniProt P09225 34-202, limits assumed).
T3 construct: Coated as recombinant protein in the EIA; used as 'murine LTα lysates' in the WEHI assay; also called murine LTα lysates
T3 sequence (looked up): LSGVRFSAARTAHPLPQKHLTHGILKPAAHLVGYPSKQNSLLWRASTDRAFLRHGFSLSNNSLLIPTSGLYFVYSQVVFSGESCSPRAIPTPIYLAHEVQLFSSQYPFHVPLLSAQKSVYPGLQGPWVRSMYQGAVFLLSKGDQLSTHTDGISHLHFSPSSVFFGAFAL
In words: EIA, recombinant protein coated at 1 µg/mL. The method, then:
as §1

T2 sequence (P01375 77-233 limits assumed): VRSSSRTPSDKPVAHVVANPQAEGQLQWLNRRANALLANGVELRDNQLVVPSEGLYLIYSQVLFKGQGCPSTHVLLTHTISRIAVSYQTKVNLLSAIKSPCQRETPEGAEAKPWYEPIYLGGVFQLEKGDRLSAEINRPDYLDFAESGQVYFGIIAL

B1: murine anti-human LTα Mab 4 (antibody, V domains shown)
VH: PGLVAPAQSLSITCTVSGFSLTSYGVHWVRQPPGKGLEWLGVIWAGGNTNYNSPLMSRLRIIKDNSKSQVFLKMNSLQADDTAMYYCVSHDVNNPFGYWGQGTLVTVSA
VL: DIQMTQTTSSLSASLGDRVTISCRASQDITNYLNWYQQKPDGTVKLLIYYTSRLHSGVPSRFSGSGSGTDYSLTISNLEQEDIATYFCQQGNTLPYTFGGGTRLEIK
notes: Tested as the murine IgG1 kappa hybridoma Mab; also called Mab number 4
For the molecule B1, in experiment [1], the “IC50, inhibition of LTα-mediated WEHI 164 cell cytotoxicity, rhuLTα at 10 ng/mL” value stood at 6.2 µg/mL; the “IC50, inhibition of WEHI 164 cell cytotoxicity, rhuLTα at 0.1 ng/mL” value amounted to 0.54 µg/mL; the “normalized molar ratio of Mab to rhuLTα at the IC50 value, rhuLTα at 0.1 ng/mL” value was 1800 molar ratio Mab:rhuLTα. Also, the Kd in experiment [2] came to 1.1 nM. Also, in experiment [3], the binding result is “no binding (tested: serial dilutions starting at 25 µg/nL)”. In addition, in experiment [4], the binding result is “no binding (tested: serial dilutions starting at 25 µg/nL)”.

As usually defined, the Kd is a measure of binding affinity in units of concentration.

These data come from US20050266004A1 (published 2005).
